The values below are quoted from earlier work in publication PMC8438204, “Unraveling the Thermodynamics of Ultra-tight Binding of Intrinsically Disordered Proteins” (Frontiers in Molecular Biosciences, 2021).

One series has as its system barnase-barstar. Conditions: ref Frisch et al., 1997. The procedure:
Supplement DataSheet1.docx, table 1: Table S1. Thermodynamic parameters and structural properties of the complexes. All parameters are reported at T = 25°C. | column: Thermodynamic parameters || Next, we examine how the binding energetics of HigA2_3-23-HigB2 compares to other ultra-high affinity complexes formed by globular proteins. These include well-known examples such as the barnase-barstar and the complexes between various immunity proteins and colicin-DNases ([Hartley, 1989]; [Keeble et al., 2006]). The overall Gibbs free energies of globular high affinity complexes (ΔG assoc about −19 kcal/mol) are approximately 3 kcal/mol more negative compared to HigA2_3–23-HigB2. Since no significant conformational changes occur upon formation of globular high affinity complexes in any of th ... || Nonetheless, a handful of examples of IDP binders with ultra-high affinity have been characterized to date.

In the next series the test system is CcdB2. The note with it: ref Drobnak et al., 2013. How it is done: Supplement DataSheet1.docx, table 1: Table S1. Thermodynamic parameters and structural properties of the complexes. All parameters are reported at T = 25°C. | column: Thermodynamic parameters || Nonetheless, a handful of examples of IDP binders with ultra-high affinity have been characterized to date. […] Complexes are ordered according to the degree of energy optimization as estimated by the ΔH bind/ASAint values. For the HigA2_3-23-HigB2 complex the degree of energy optimization is similar to one observed for the pairs of globular high affinity binders (Supplementary Table S1, Figure 3A). […] The high affinit ...

The test system of series [1] is E7-Im7 (colicin DNase - immunity protein). Conditions: ref Keeble et al., 2006. The procedure: Supplement DataSheet1.docx, table 1: Table S1. Thermodynamic parameters and structural properties of the complexes. All parameters are reported at T = 25°C. | column: Thermodynamic parameters

B1: barnase-barstar (protein, UniProt P00648 48-157; P11540 2-90, looked up)
Ribonuclease: AQVINTFDGVADYLQTYHKLPDNYITKSEAQALGWVASKGNLADVAPGKSIGGDIFSNREGKLPGKSGRTWREADINYTSGFRNSDRILYSSDWLIYKTTDHYQTFTKIR
Barstar: KKAVINGEQIRSISDLHQTLKKELALPEYYGENLDALWDCLTGWVEYPLVLEWRQFEQSKQLTENGAESVLQVFREAKAEGCDITIILS
In the case of B1, in the series with barnase-barstar (25°C), the “-TΔS” value was -0.1 kcal/mol and the ΔG was -19 kcal/mol. The ΔCp in the series with barnase-barstar is given as -0.36 ± 0.02 kcal mol^-1 K^-1.

B2: CcdA (protein, UniProt P62552 1-72, looked up)
Antitoxin CcdA: MKQRITVTVDSDSYQLLKAYDVNISGLVSTTMQNEARRLRAERWKAENQEGMAEVARFIEMNGSFADENRDW
On to B2, for which the “ΔG (association)” value with CcdB2 (25°C) is -15.6 kcal/mol. The Kd (usually a measure of binding affinity in units of concentration) at CcdB2 is 4 pM.

B3: E7-Im7 (protein, UniProt Q47112 1-576; Q03708 1-87, looked up)
Colicin-E7: MSGGDGRGHNSGAHNTGGNINGGPTGLGGNGGASDGSGWSSENNPWGGGSGSGVHWGGGSGHGNGGGNSNSGGGSNSSVAAPMAFGFPALAAPGAGTLGISVSGEALSAAIADIFAALKGPFKFSAWGIALYGILPSEIAKDDPNMMSKIVTSLPAETVTNVQVSTLPLDQATVSVTKRVTDVVKDTRQHIAVVAGVPMSVPVVNAKPTRTPGVFHASFPGVPSLTVSTVKGLPVSTTLPRGITEDKGRTAVPAGFTFGGGSHEAVIRFPKESGQKPVYVSVTDVLTPAQVKQRQDEEKRLQQEWNDAHPVEVAERNYEQARAELNQANKDVARNQERQAKAVQVYNSRKSELDAANKTLADAKAEIKQFERFAREPMAAGHRMWQMAGLKAQRAQTDVNNKKAAFDAAAKEKSDADVALSSALERRKQKENKEKDAKAKLDKESKRNKPGKATGKGKPVNNKWLNNAGKDLGSPVPDRIANKLRDKEFKSFDDFRKKFWEEVSKDPELSKQFSRNNNDRMKVGKAPKTRTQDVSGKRTSFELHHEKPISQNGGVYDMDNISVVTPKRHIDIHRGK
Colicin-E7 immunity protein: MELKNSISDYTEAEFVQLLKEIEKENVAATDDVLDVLLEHFVKITEHPDGTDLIYYPSDNRDDSPEGIVKEIKEWRAANGKPGFKQG
B3: in series [1] (25°C), the “-TΔS” value was 10.5 kcal/mol, the ΔG is -19.8 kcal/mol and the ΔH is -30.3 ± 0.8 kcal/mol. Moreover, in series [1], the ΔCp is -0.69 kcal mol^-1 K^-1.
